This is an account of results in the Immune Epitope Database (IEDB).

Test [1] concerns the target HLA-B*18:01. Description: IEDB peptide-MHC binding, purified MHC/competitive/radioactivity; filed as Kd, often an IC50 or EC50 that approximates it; ≥ and ≤ were set here for values at or beyond the usual limits of such assays.
Test [2] has as its target HLA-B*40:01. The test is described as above.
The target in test [3] is HLA-B*40:02. Described as above.
In test [4] the target is HLA-B*44:02. The test is described as above.
Test [5] deals with HLA-B*44:03. Described as above.
Test [6] addresses HLA-B*45:01. The description is as above.
Test [7] addresses HLA-A*02:01. As to the kind of experiment: IEDB peptide-MHC binding, purified MHC/competitive/fluorescence; filed as Kd, often an IC50 or EC50 that approximates it; ≥ and ≤ were set here for values at or beyond the usual limits of such assays. The settings on record: source organism: Yersinia pestis Nepal516.
For test [8], the target named is HLA-B*15:01. The description is as above. The following applies: source organism: Yersinia pestis Nepal516.
Test [9] addresses HLA-B*39:01. The description is as above. The settings on record: source organism: Yersinia pestis Nepal516.
[10] abbreviates: source organism: Mammarenavirus lassaense.
[11] abbreviates: source organism: SARS coronavirus Tor2.
Setting [12] is: source organism: Mammarenavirus machupoense.
The mark [13] stands for this setting: source organism: Mammarenavirus brazilense.
Where [14] appears, read: source organism: Mammarenavirus choriomeningitidis.

As a reminder, the Kd is the equilibrium constant for the complex coming apart. For the sequence AEFKSRFFVW, the Kd in test [1] (setting [10]) worked out at 0.271 µM; in test [2] (setting [10]) it was 2.33 µM; in test [3] (setting [10]), 0.0294 µM; in test [4] (setting [10]) it was 0.0136 µM; in [5] (setting [10]) it was 0.0156 µM; in [6] (setting [10]) it was 0.0514 µM.

For the sequence AEMDGIQYG, the Kd in [1] (setting [11]) was at least 77.5 µM; in test [2] (setting [11]), 2.02 µM; in [3] (setting [11]), 1.31 µM; in test [4] (setting [11]), 0.0114 µM; in test [5] (setting [11]), 0.0138 µM; in test [6] (setting [11]) it was 0.0476 µM.

Take AQRELFFTL: the Kd in [7] was found to be 1.3 µM; in test [8], 0.113 µM; in [9], 0.332 µM.

For EELITDTEFL, the Kd in test [1] (setting [10]) is 10.9 µM; in test [2] (setting [10]) it was 12.7 µM; in test [3] (setting [10]), at least 24.1 µM; in [4] (setting [10]), 4.74 µM; in test [5] (setting [10]), 9.1 µM; in test [6] (setting [10]), 12.4 µM.

For the sequence EEPVPLLPLS, the Kd is at least 52.4 µM in [1] (setting [12]); at least 32 µM in test [2] (setting [12]); 7.13 µM in test [3] (setting [12]); 15.7 µM in test [4] (setting [12]); 6.26 µM in [5] (setting [12]); 1.95 µM in test [6] (setting [12]).

For GEDIQLLKA, the Kd in test [1] (setting [11]) was determined as 1.08 µM; in test [2] (setting [11]), 7.55 µM; in test [3] (setting [11]), 2.73 µM; in test [4] (setting [11]), 13.6 µM; in test [5] (setting [11]), 2.66 µM; in [6] (setting [11]), 2.88 µM.

With GEHSLPRCW, the Kd in test [1] (setting [13]) is at least 77.5 µM; in [2] (setting [13]), at least 42.8 µM; in test [3] (setting [13]), 2.14 µM; in test [4] (setting [13]), 0.0242 µM; in [5] (setting [13]), 0.0802 µM; in [6] (setting [13]) it was 8.74 µM.

For the sequence IDPTLTTWI, the Kd in [1] (setting [13]) was at least 42 µM; in test [2] (setting [13]), at least 53.3 µM; in [3] (setting [13]) it was at least 10 µM; in test [4] (setting [13]), 3.58 µM; in test [5] (setting [13]) it was 1.37 µM; in test [6] (setting [13]), 7.23 µM.

For the sequence IETALRTLI, the Kd is 3.45 µM in test [1] (setting [14]); 1.86 µM in test [2] (setting [14]); 0.154 µM in test [3] (setting [14]); 2.78 µM in test [4] (setting [14]); 2.2 µM in [5] (setting [14]); at least 54 µM in test [6] (setting [14]).

For the sequence KEGFFTYLCG, the Kd was at least 70.5 µM in test [1] (setting [11]); 1.64 µM in test [2] (setting [11]); 3.75 µM in [3] (setting [11]); 2.62 µM in [4] (setting [11]); 0.369 µM in test [5] (setting [11]); 2.89 µM in test [6] (setting [11]).

With KENDSKEGFF, the Kd was 7.49 µM in [1] (setting [11]); 2.69 µM in [2] (setting [11]); 0.366 µM in test [3] (setting [11]); 0.0398 µM in test [4] (setting [11]); 0.03 µM in [5] (setting [11]); 0.0244 µM in test [6] (setting [11]).

As to LESAQPGLL, the Kd in [1] (setting [13]) was at least 10 µM; in [2] (setting [13]), 0.147 µM; in test [3] (setting [13]), 0.431 µM; in [4] (setting [13]), 2.95 µM; in test [5] (setting [13]), 16.8 µM; in [6] (setting [13]), 13.5 µM.
